1 variant from IntAct's records for PubMed 19424970 can be followed below.

B1: UL16-binding protein 2 (Homo sapiens), Q9BZM5 (parent)
chain: MAAAAATKILLCLPLLLLLSGWSRAGRADPHSLCYDITVIPKFRPGPRWCAVQGQVDEKTFLHYDCGNKTVTPVSPLGKKLNVTTAWKAQNPVLREVVDILTEQLRDIQLENYTPKEPLTLQARMSCEQKAEGHSSGSWQFSFDGQIFLLFDSEKRMWTTVHPGARKMKEKWENDKVVAMSFHYFSMGDCIGWLEDFLMGMDSTLEPSAGAPLAMSSGTTQLRATATTLILCCLLIILPCFILPGI

The variants in this experiment derive from B1. The note with it: with nkg2d_human KLRK1, P26718.
nkg2d_human KLRK1, P26718, sequence (P26718 whole entry): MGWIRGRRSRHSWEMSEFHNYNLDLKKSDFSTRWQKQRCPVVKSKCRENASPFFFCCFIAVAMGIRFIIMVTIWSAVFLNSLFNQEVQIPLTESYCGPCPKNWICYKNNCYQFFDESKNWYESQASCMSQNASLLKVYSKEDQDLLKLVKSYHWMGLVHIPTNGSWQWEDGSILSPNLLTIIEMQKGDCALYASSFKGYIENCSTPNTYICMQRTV
Regarding MAAAAATKILLCLPLLLLLSGWSRAGRADPHSLCYDITVIPKFRPGPRWCAVQGQVDEKTFLHYDCGNKTVTPVSPLGKKLNVTTAWKAQNPVLREVVDILTEQLRDIQLENYTPKEPLTLQARMSCEQKAEGHSSGSWQLSFDGQIFLLFDSEKRMWTTVHPGARKMKEKWENDKVVAMSFHYFSMGDCIGWLEDFLMGMDSTLEPSAGAPLAMSSGTTQLRATATTLILCCLLIILPCFILPGI [F141L], the “effect of a mutation on the interaction” value is reported as “decreasing interaction strength”.
